Measurements published in paper PMC4703518.

T1: Unkempt ZnF1-3 (mouse, UniProt Q8BL48 31-174)
T1 sequence: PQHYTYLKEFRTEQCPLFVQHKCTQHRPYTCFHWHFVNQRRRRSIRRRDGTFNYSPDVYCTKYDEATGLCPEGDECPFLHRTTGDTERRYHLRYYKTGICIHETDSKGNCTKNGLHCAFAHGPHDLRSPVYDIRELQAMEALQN

T2: Unkempt ZnF1-6 WT (mouse, UniProt Q8BL48 31-335)
T2 sequence: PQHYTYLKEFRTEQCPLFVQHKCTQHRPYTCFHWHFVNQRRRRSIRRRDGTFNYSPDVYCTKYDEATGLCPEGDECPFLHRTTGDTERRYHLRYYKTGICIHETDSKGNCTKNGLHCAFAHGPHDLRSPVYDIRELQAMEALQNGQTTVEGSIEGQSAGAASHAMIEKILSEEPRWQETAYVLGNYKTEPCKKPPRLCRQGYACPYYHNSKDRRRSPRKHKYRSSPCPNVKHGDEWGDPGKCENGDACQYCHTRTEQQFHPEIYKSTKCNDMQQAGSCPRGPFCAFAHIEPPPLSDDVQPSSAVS

T3: Unkempt ZnF4-6 (mouse, UniProt Q8BL48 204-335)
T3 sequence: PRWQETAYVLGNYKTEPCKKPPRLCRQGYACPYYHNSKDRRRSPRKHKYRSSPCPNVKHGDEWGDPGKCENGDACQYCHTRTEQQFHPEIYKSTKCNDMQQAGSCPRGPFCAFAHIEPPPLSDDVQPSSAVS


Experiments:
[1] = target: T1, Unkempt ZnF1-3; test: ITC
[2] = target: T2, Unkempt ZnF1-6 WT; test: EMSA
[3] = target: T3, Unkempt ZnF4-6; test: ITC

Row | Binder | binding result [1] | binding result [2] | binding result [3]
1 | ACUCCCAAUUAUUAAUGA (ssRNA) [HSPA8 URE 18-mer UAG-mutated] | binds |  | 
2 | ACUUAGAAUUAUUAAUGA (ssRNA) [HSPA8 URE 18-mer WT] |  | binds | binds
